B1: library; a variant is named by its letters at N, in order (parent)
chain: GAGACCGCAACTGAAAAGTTGTGGNNNNNATAGTGAGTCGCTGCCTGCAAAGACACAACT

± gives the standard deviation of the averaged measurements.

The variants in the data set derive from B1. In words: ligation selection enrichment (abundance after / before one-round selection) (fold); higher = more template-directed ligation activity. Particulars: with T7Psub CACGGAUGCUAAUACGACUCACUAUA; MgCl2 25 mM; 42 °C; 4 h; pH 8.5. The method in brief:
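Two independent reactions combined a T7-transcribed RNA ligase library with five randomized core positions (0.75 μM) and RNA substrate (6 μM) in 50 mM EPPS pH 8.5, 25 mM MgCl2, run for 4 h at 42 °C. The ligated products were sequenced on a MiSeq, and only reads with quality ≥30 at all randomized positions were counted. Enrichment is the abundance after ligation divided by the abundance before ligation.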
In the case of GAGACCGCAACTGAAAAGTTGTGGACGACATAGTGAGTCGCTGCCTGCAAAGACACAACT [ACGAC], the ligation selection enrichment came out at 1.41 ± 0.032.

For the variant GAGACCGCAACTGAAAAGTTGTGGACGAGATAGTGAGTCGCTGCCTGCAAAGACACAACT [ACGAG], the ligation selection enrichment was found to be 0.745 ± 0.13.

As to GAGACCGCAACTGAAAAGTTGTGGACGATATAGTGAGTCGCTGCCTGCAAAGACACAACT [ACGAT], the ligation selection enrichment was 16.5 ± 2.7.

As to GAGACCGCAACTGAAAAGTTGTGGACGAAATAGTGAGTCGCTGCCTGCAAAGACACAACT [ACGAA], the ligation selection enrichment stood at 0.734 ± 0.16.

As to GAGACCGCAACTGAAAAGTTGTGGGCGCCATAGTGAGTCGCTGCCTGCAAAGACACAACT [GCGCC], the ligation selection enrichment is 0.191 ± 0.017.

Regarding GAGACCGCAACTGAAAAGTTGTGGGCGCAATAGTGAGTCGCTGCCTGCAAAGACACAACT [GCGCA], the ligation selection enrichment worked out at 0.289 ± 0.025.

As to GAGACCGCAACTGAAAAGTTGTGGGCGCTATAGTGAGTCGCTGCCTGCAAAGACACAACT [GCGCT], the ligation selection enrichment was found to be 0.519 ± 0.19.

As to GAGACCGCAACTGAAAAGTTGTGGGCGCGATAGTGAGTCGCTGCCTGCAAAGACACAACT [GCGCG], the ligation selection enrichment came out at 0.558 ± 0.0074.

GAGACCGCAACTGAAAAGTTGTGGGCGATATAGTGAGTCGCTGCCTGCAAAGACACAACT [GCGAT]: the ligation selection enrichment stood at 21.9 ± 4.1.

As to GAGACCGCAACTGAAAAGTTGTGGGCGAGATAGTGAGTCGCTGCCTGCAAAGACACAACT [GCGAG], the ligation selection enrichment was 1.37 ± 0.06.

In the case of GAGACCGCAACTGAAAAGTTGTGGGCGACATAGTGAGTCGCTGCCTGCAAAGACACAACT [GCGAC], the ligation selection enrichment was found to be 1.92 ± 0.12.

As for GAGACCGCAACTGAAAAGTTGTGGGCGAAATAGTGAGTCGCTGCCTGCAAAGACACAACT [GCGAA], the ligation selection enrichment came out at 1.35 ± 0.24.

For GAGACCGCAACTGAAAAGTTGTGGCCGAAATAGTGAGTCGCTGCCTGCAAAGACACAACT [CCGAA], the ligation selection enrichment stood at 0.831 ± 0.069.

Turning to GAGACCGCAACTGAAAAGTTGTGGCCGACATAGTGAGTCGCTGCCTGCAAAGACACAACT [CCGAC], the ligation selection enrichment is 1.37 ± 0.061.

Take GAGACCGCAACTGAAAAGTTGTGGCCGAGATAGTGAGTCGCTGCCTGCAAAGACACAACT [CCGAG]: the ligation selection enrichment stood at 0.853 ± 0.037.

With GAGACCGCAACTGAAAAGTTGTGGCCGATATAGTGAGTCGCTGCCTGCAAAGACACAACT [CCGAT], the ligation selection enrichment turned out to be 15.8 ± 4.6.

Regarding GAGACCGCAACTGAAAAGTTGTGGACCGGATAGTGAGTCGCTGCCTGCAAAGACACAACT [ACCGG], the ligation selection enrichment is 0.409 ± 0.0084.

In the case of GAGACCGCAACTGAAAAGTTGTGGACCGCATAGTGAGTCGCTGCCTGCAAAGACACAACT [ACCGC], the ligation selection enrichment was 0.182 ± 0.016.

As for GAGACCGCAACTGAAAAGTTGTGGACCGTATAGTGAGTCGCTGCCTGCAAAGACACAACT [ACCGT], the ligation selection enrichment amounted to 0.232 ± 0.081.

As for GAGACCGCAACTGAAAAGTTGTGGACCGAATAGTGAGTCGCTGCCTGCAAAGACACAACT [ACCGA], the ligation selection enrichment stood at 0.379 ± 0.054.

Take GAGACCGCAACTGAAAAGTTGTGGGCGGCATAGTGAGTCGCTGCCTGCAAAGACACAACT [GCGGC]: the ligation selection enrichment was determined as 0.103 ± 0.017.

Turning to GAGACCGCAACTGAAAAGTTGTGGGCGGAATAGTGAGTCGCTGCCTGCAAAGACACAACT [GCGGA], the ligation selection enrichment worked out at 0.334 ± 0.035.

For the variant GAGACCGCAACTGAAAAGTTGTGGGCGGGATAGTGAGTCGCTGCCTGCAAAGACACAACT [GCGGG], the ligation selection enrichment was determined as 0.201 ± 0.0056.

As to GAGACCGCAACTGAAAAGTTGTGGGCGGTATAGTGAGTCGCTGCCTGCAAAGACACAACT [GCGGT], the ligation selection enrichment turned out to be 0.186 ± 0.11.

Regarding GAGACCGCAACTGAAAAGTTGTGGGCCTAATAGTGAGTCGCTGCCTGCAAAGACACAACT [GCCTA], the ligation selection enrichment worked out at 0.198 ± 0.017.

Consider GAGACCGCAACTGAAAAGTTGTGGGCCTCATAGTGAGTCGCTGCCTGCAAAGACACAACT [GCCTC], for which the ligation selection enrichment was found to be 0.114 ± 0.0038.

With GAGACCGCAACTGAAAAGTTGTGGGCCTTATAGTGAGTCGCTGCCTGCAAAGACACAACT [GCCTT], the ligation selection enrichment was 0.162 ± 0.02.

Take GAGACCGCAACTGAAAAGTTGTGGGCCTGATAGTGAGTCGCTGCCTGCAAAGACACAACT [GCCTG]: the ligation selection enrichment stood at 0.624 ± 0.06.

As for GAGACCGCAACTGAAAAGTTGTGGTCCCGATAGTGAGTCGCTGCCTGCAAAGACACAACT [TCCCG], the ligation selection enrichment was 0.46 ± 0.093.

For the variant GAGACCGCAACTGAAAAGTTGTGGTCCCTATAGTGAGTCGCTGCCTGCAAAGACACAACT [TCCCT], the ligation selection enrichment was 0.324 ± 0.076.

With GAGACCGCAACTGAAAAGTTGTGGCCCGCATAGTGAGTCGCTGCCTGCAAAGACACAACT [CCCGC], the ligation selection enrichment stood at 0.163 ± 0.053.

Consider GAGACCGCAACTGAAAAGTTGTGGCCCGTATAGTGAGTCGCTGCCTGCAAAGACACAACT [CCCGT], for which the ligation selection enrichment was 0.207 ± 0.059.

With GAGACCGCAACTGAAAAGTTGTGGCCCGGATAGTGAGTCGCTGCCTGCAAAGACACAACT [CCCGG], the ligation selection enrichment stood at 0.327 ± 0.049.

For the variant GAGACCGCAACTGAAAAGTTGTGGCCCGAATAGTGAGTCGCTGCCTGCAAAGACACAACT [CCCGA], the ligation selection enrichment turned out to be 0.405 ± 0.013.

Consider GAGACCGCAACTGAAAAGTTGTGGACCCGATAGTGAGTCGCTGCCTGCAAAGACACAACT [ACCCG], for which the ligation selection enrichment was 0.752 ± 0.054.

As to GAGACCGCAACTGAAAAGTTGTGGACCCTATAGTGAGTCGCTGCCTGCAAAGACACAACT [ACCCT], the ligation selection enrichment was found to be 0.379 ± 0.15.

For the variant GAGACCGCAACTGAAAAGTTGTGGTCGTAATAGTGAGTCGCTGCCTGCAAAGACACAACT [TCGTA], the ligation selection enrichment is 0.31 ± 0.074.

Regarding GAGACCGCAACTGAAAAGTTGTGGACCTGATAGTGAGTCGCTGCCTGCAAAGACACAACT [ACCTG], the ligation selection enrichment stood at 0.4917 ± 0.0012.

In the case of GAGACCGCAACTGAAAAGTTGTGGACCTTATAGTGAGTCGCTGCCTGCAAAGACACAACT [ACCTT], the ligation selection enrichment stood at 0.117 ± 0.004.

As for GAGACCGCAACTGAAAAGTTGTGGACCTCATAGTGAGTCGCTGCCTGCAAAGACACAACT [ACCTC], the ligation selection enrichment came to 0.0933 ± 0.036.

GAGACCGCAACTGAAAAGTTGTGGACCTAATAGTGAGTCGCTGCCTGCAAAGACACAACT [ACCTA]: the ligation selection enrichment amounted to 0.18 ± 0.017.

As for GAGACCGCAACTGAAAAGTTGTGGCCGGGATAGTGAGTCGCTGCCTGCAAAGACACAACT [CCGGG], the ligation selection enrichment was 0.244 ± 0.014.

With GAGACCGCAACTGAAAAGTTGTGGCCGGTATAGTGAGTCGCTGCCTGCAAAGACACAACT [CCGGT], the ligation selection enrichment worked out at 0.152 ± 0.021.

For the variant GAGACCGCAACTGAAAAGTTGTGGCCGGAATAGTGAGTCGCTGCCTGCAAAGACACAACT [CCGGA], the ligation selection enrichment stood at 0.278 ± 0.019.
